Data from a protein production outcome set (Wang et al. 2014).

Experiment: label from the status in PepcDB records
For “HYTPKSLTEAIVAETLTPLTYFGPVEGSACKEWTLKTPAELLDLKICDPAMGSGAFLVQACRWLADRLVEAWAQAEIKGKIINVDGNVLDDLSSNELMPHDIDARINIARYLIAERCLYGIDLNPLAVELAKLSIWLVTLAKGRPFGFLDHSLRCGDSLLGIHQVNQLIELSVLTNSDDQDTLFSKDIRKAIYDASKLRQRLREMPIGDIHDIEEMERLNTEAHKRLYKAKKIADALVGEIFATGANFSAREARLKMLSLKLKESVEEDENIFMEISYQGTVKLQQELPSGRSKRIPIHWPLEFPEVFIRTCSGFDAIIGNPPFLGGRKITGVFGNLYREYLVANIAKGERGSSADLVAYFFLRSFYLLRESGCLGLIAVNSIAEGDSRQIGLERLLQSGAQIFSATPNEPWPGKAAVVTSRIHLIKGAFFGEKLLNGKKVAIISAFLSDQNEWSPKILKENLGQS”, the protein production was “failed”.
In the case of “IEIDSGSGFCFGVVNAIRHAEKQLEKSSDKLYCLGDIVHNTLEVERLGKKGLETIDYDAFSRLRGAKVLLRAHGEPPEIYRMAGENGVTIIDATCPVVLRLQNKIKSRYEATRSLGAQVVIYGKRGHAEVNGLVGQTEGTAIVIESEEELDKIDYTRPVILFSQTTKSLEGFGQIIDSISTRMQPGVTFEHHDTICRQVANRIPHIGAFATAHELVFFVAGEKSSNGKVLFGHCLAANPRSIFISSPEVIVPDMLVPLPASIGICGATSTPRWQMEEVASHIKAL”, the protein production is reported as “failed”.
In the case of “IESIPMPILYKNMEGSYLGCNSKFLELSGKSREEVIGFRVGDLLDKKSAMEIEECERHLKEKGECPSHDIRFVDHRGEECFIRVYKTLLTNNFDEPVGILGFFVDMS”, the protein production is reported as “failed”.
For “IIAGETSIPSQGENMPAYHARPKNADGPLPIVIVVQEIFGVHEHIRDLCRRLAQEGYLAIAPELYFRQGDPNEYHDIPTLFKELVSKVPDAQVLADLDHVASWAARHGGDAHRLLITGFCWGGRITWLYAAHNPQLKAAVAWYGKLVGEKSLNSPKHPVDIAVDLNAPVLGLYGAKDASIPQDTVETMRQALRAANATAEIVVYPEADHAFNADYRASYHEESAKDGWQRMLAWFAQY”, the protein production was “not failed”.
In the case of “IIWDWNVERDRIIVHPDMKSLFGTETHKLNGPMQNWISALHHDDRERFQAVLDIILKNKKGRIDQIFRLSSGGGYYHWFSLRARPAMQKDGKITRVIGTIVNITNHKKA”, the protein production is reported as “failed”.
For “ILVKNLPQDSNCQEVHDLLKDYDLKYCYVDRNKRTAFVTLLNGEQAQNAIQMFHQYSFRGKDLIVQLQPTDALLC”, the protein production was “not failed”.
With “IRVAAFNVLNYDNGAEKGFPTDRGATTATEFSRQHQKIVTALKAINADVYGLMEIANNGYDEKSAIAYLTKSLGPDWKYITPPNMNRLGSDVIAVGILYNAKRVKPVNAAVVFDDQSQKNRVTMAQTFQPIHGGKFFTVIPNHLKSKGSCPEDTASTDADQLDGQGCWNPTRVKAVEQLIQWAAKNPTRVQQPNILFLGDMNSYAKEDPILAFEKANYKVLLNDEKIGQGKQAYSYVFGVSSNALGYGGAGNIDHAIADSNLYRFVKRAFVWHINADEPTALDYNEEYKTDEQKTLFYADDAYRSSDHDPVIVDLDLKESAQQGGVLNFIQQLLDWIAQLFTRT” the protein production was “failed”.
In the case of “ISDRKMAEIALRESEARFRNLFESNIVGMFFASNQGEIFDANDRFLQMIGFTKEELDLGLVHWDRLTPPEYDQKDQEIIARLRNHETPEPWQKEYYRKDGSRIPVLVGVASIDVELEYTVCIVVDMT”, the protein production is reported as “failed”.
With “ISEWARKEQAIRNSEANFRDIFASIKDGLLVLDEDNYICYANAQAVKLLNCTLEELVGTIGSPLEDTEFSLLVDDGTIYTVDVSVTEITWYGQTAKLVSLRDISDRKRMENQLRENQNKYYRLLENLD” the protein production was “failed”.
In the case of “ITKRNVELRVDDSLMRVYVASPKPVGVYPGIVFYSDIYQLGSPIIRLANYLAGFGYVVAAPEIFHRLEPIGLVIEPDDLGRMRGNDNARRTAIAEYDADSRAVIDFLKAETTVNANK”, the protein production is reported as “failed”.
For “IYLYATATGEVRQMHGITVDRERERRVPDHHQLDSDTTTHSHSVKNQEYYKLLHENDTWKLSQSLKDRPFVALNPTRKAQMLAHLCNDLLMNKAVLRQIDGSLETCAQMRKEKYMTDMKVRKYKALHMRKARIEAYERAQAEREAAMQALM”, the protein production was “failed”.
With “KAKPVATAPIPGTPWCVVWTGDERVFFYNPTTRLSMWDRPDDLIGRADVDKIIQEPPHKK” the protein production was “not failed”.
For “KALAHAKNDSVAVATDDLKEGEEIQVAFLDNNEKTKITTAEVIPLGHKISLKDIKKGENVIEYGEVIGAATKDIKRGEHVHIHNIKSLRW”, the protein production was “failed”.
In the case of “KEETEIIEGEVVEIQIDRPATGTGSKVGKLTLKTTEMETIYDLGTKMIESLTKDKVQAGDVITIDKATGKISKLGRSFTRAR”, the protein production is reported as “not failed”.
For “KEYNIVITGVGGQGILTAANILGWAALRAGYKVRVGEIHGMSQRFGSVIAYVRFGEEVYGAMVPEGKADVILSFEPVEALRYINYLKKGGLVFTNARPIPPVQVSMGIARYPSLEEIKRIVEEDFGGRFLAFDAEKLAIEAGHVVTTNVVLIGALTQTPGFPLSEDHVRDVIKLNVPPKAVEINMRAFDLGVKT”, the protein production was “failed”.
In the case of “KGMIRPRGLNQQRYVKEVLSNDINFGIGPAGTGKTYLAVACAVDALEREQIRRILLVRPAVEAGEKLGFLPGDLAQKIDPYLRPLYDALYEMLGFEYVAKLIEKQVIEVAPLAYMRGRTLNNSFIILDESQNTTVEQMKMFLTRIGFGSTAVITGDITQVDLPKGTRSGLTHVIDVLKDVPGISFTHFKPKDVVRHPLVQRIVEAYERFDDQLSDGPSGNNG”, the protein production is reported as “not failed”.
In the case of “KIGKHTIKFPIFQGGMGVGISWDELAGNVAKEGALGVISAVGTGYYKNMRFVERIVAKKPFEALNFYSKKALNEIFANARKICGNNPLGANILYAINDYGRVLRDSCEAGANIIITGAGLPTNMPEFAKDFSDVALIPIISSAKALKILCKRWSDRYKRIPDAFIVEGPLSGGHQGFKYEDCFKEEFRLENLVPKVVEASKEWGNIPIIAAGGIWDRKDIDTMLSLGASGVQMATRFLGTKECDAKVYADLLPTLKKEDILLIKSPVGYPARAINTGVIKRIEEGNAPKIACVSNCVAPCNRGEEAKKVGYCIADGLGRSYLGNREEGLYFTGANGYRVDKIISVHELIK”, the protein production is reported as “failed”.
In the case of “KISNIFEDVEFCVMSGTDSQPKPDLENRIAEFGGYIVQNPGPDTYCVIAGSENIRVKNIILSNKHDVVKPAWLLECFKTKSFVPWQPRFMIHMCPSTKEHFAREYD”, the protein production is reported as “not failed”.
In the case of “KKKVLIYGAGSAGLQLANMLRQGKEFHPIAFIDDDRKKHKTTMQGITIYRPKYLERLIKKHCISTVLLAVPSASQVQKKVIIESLAKLHVEVLTIPNLDDLVNGKLSIGQLKEVSIDDLLGRVAVTPQAELMEANIKD”, the protein production is reported as “not failed”.
In the case of “KKTEWSREEEEKLLHLAKLMPTQWRTIAPIIGRTAAQCLEHYEFLLDKAAQRD”, the protein production is reported as “not failed”.
With “KKVCVDTCVVIDGRITELIERGKLKDATIIIPEAVVSELEYQANMGREIGYKGIEELRKLIEKASEHNIKVEYYGERPTREEIFLAKSGEIDAMIRKVAKETNSILLTSDWIQYNLAKAQGIEAYFLEAAEEEVELVLD” the protein production was “not failed”.
In the case of “KKYVDNLKETISRVEVSRDNFLTILNSLSEPIFILDREGKITFLNEIARELVQGRINPEGRPYYEIFEDYYINEMVEETIKSEEPQEGTLVTYVGNEKKYFHVKVIPVELKSGDKIFVILFHDVTKERKLDEMRREFIATVSHEL”, the protein production is reported as “failed”.
In the case of “KLAYRHLIQPESAVRKLMILVNGRAENMLKWSELAYDFYHQGYDVLLFDHRGQGYSQRIIPQKGHLDEFRFYVDDMAKIIEKVTALFSYSTQHLLAHSMGALIATYYLANYDHHINKAVLSSPFYGILLKHPIRDELIITLMNILGQGERYVFGKGAYQQAHLEYNELTFCKTRMKWMNRINRKNPAINLGGPTFRWVHLCLNAIKRLPKVIPKIEIPILILQAEKEKIVDNKNLEKLTALFPNARCEVILNAKHEVLFEKDNVRRNVLKSVNHFLN”, the protein production is reported as “failed”.
For “KLRQWLIDQIDSGKYPGLVWENEEKSIFRIPWKHAGKQDYNREEDAALFKAWALFKGKFREGIDKPDPPTWKTRLRCALNKSNDFEELVERSQLDISDPYKVYRIVPE”, the protein production was “not failed”.
For “KLYGSIFTGASKFRCKDCSAAYDTLVELTVHMNETGHYRDDNHETDNNNPKRWSKPRKRSLLEMEGKEDAQKVLKCMYCGHSFESLQDLSVHMIKTKHYQKV”, the protein production was “not failed”.
With “KMLMPIEFELVESAPLFHELLHLRDAVGLPSIGVDMADGHPLQPLYWVSIHLTAKQDKNTATIVATACVYGDNANHFAIEDFIVLPEYRHIGLGKIILERVMAFVDDRATLGTYVSINTHGEQEKLCTDYGFAHSH” the protein production was “failed”.
For “KNVNRVLSAEALKPGMLLTGTVSSLEDHGYLVDIGVDGTRAFLPLLKAQEYIRQKNKGAKLKVGQYLNCIVEKVKGNGGVVSLSVGHSEVSTAIATEQQSWNLNNL”, the protein production was “not failed”.
With “KQKRMQAMIVTNHPEKVIEKIHKKLHRGATMIHDAEGTYNHERKAVLITVITRAEFNEFKQIMTQVDPSSFVSVSENVHILGRFVEIDN” the protein production was “failed”.
In the case of “KQVAEIGDRAVELVHDGSLLAPEDMGPYVAPIAFNALPFAGNLVEDGTEETDEEQKLRNESRKILGLPDLKVAGTCVRVPVFTGHTMVVHAEFNNAITPEQAREVLGNAAGVDVVDVPTPLAAAGVDNSLVGRIRQDQTVDDNKGLVFVVSGDNLRKGAALNAIQIAELLV”, the protein production is reported as “failed”.
With “KRASSKWLVCIGTSPSSAKLIRWTARTAEAFRAPWTALYIENEENDYMTKAEKKCLRETMELAERLGAEIVTLAGHDIAETVAEYARLTGVTNIVVGKSRRRMGLRSLFEEDFEDRLITHLDNVDMHIIP” the protein production was “failed”.
In the case of “KRGRSVLVLDHAKKPGRKILISGGGRCNFTNYDVSASNYLCQNPHFVKSALSQYTNWDFISMVSKHGIEFEERDHGQLFCVDAFTAKDIVKMLLAECDMPNIQQRYQCDVHTIEKTEEGFRLHAGTEPVECESLVVATGGLSMPKLGATPFGYKVAEQ”, the protein production is reported as “failed”.
In the case of “KRKTKEQLAILKSFFLQCQWARREDYQKLEQITGLPRPEIIQWFGDTRYALKHGQLKWFRDNA”, the protein production is reported as “not failed”.
With “KRRMELVGEYAGGITLIEDFAHHPTAIRLTLGAIAEHYPGRRIIACFEPRSNTTSRNIFQHELSECFGDAAIVVLGKVNRPERYAPEERLDAALLCRELKANGKRVFAAGSENYPEDIVRFIEAEQQPGDVVVLLSNGSFSGLKEMLAESFQKNS” the protein production was “failed”.
For “KTFMIGVTSCISGDGKSFCSHNLARIYAISGKKTLLIRGDMRKAFNAPANLIPQGSMGLSQHLIGMATIDQIIHKGEIENLYQIIPGPVPPNASELVASQKMEEFIRIMKDKFEVVIMDSPPVGLVSDYMSVIKHIDANLYIVRYDYTPKETLEAIKDLKNKYPAQSHSIIFNGIT”, the protein production was “failed”.
For “KVILYARVSSSTQKDELVNQVKYLEEQVKEYDLVITDIGSGLNMKRKGFLKLLRMILNNEVSRVVVAYPDRLVRVGFEILEEVCKAHNCEIVVLNQEDKEEELVEDLMSALVSFSGKLYGMRSHEYEKVKKCAEELKNWKI”, the protein production was “not failed”.
With “KVVKFSYMWTINNFSFCREEMGEVIKSSTFSSGANDKLKWCLRVNPKGLDEESKDYLSLYLLLVSCPKSEVRAKFKFSILNAKGEETKAMESQRAYRFVQGKDWGFKKFIRRDFLLDEANGLLPDDKLTLFCEVSVVQDSVNISGQ” the protein production was “not failed”.
In the case of “KVWKPGDECFALYWEDNKFYRAEVEALHSSGMTAVVKFTDYGNYEEVLLSNIKPVQTEAWVRDPN”, the protein production is reported as “not failed”.
With “LAALCPVAVPSGVQIYTIDGPLFFGAAATFERTLAGLHDQAEAVIFRLGRVPFADATAMHALDDVVRHFRQRHIEVRVCEANPRVAHKLREFGLLARIGQQDASISVLDALAELAPQPGTQVQAEAS” the protein production was “failed”.
